Measurements as given in the supplement of paper PMC10567573.

B1: PBXIP1 (parent)
chain: LQQLRARLQGLEADCVRGPDGVCL

Variants of: B1
Assay: protein stability index of a GFP-peptide fusion (GPS, HEK-293T) (PSI 1-6); higher = more stable
Conditions: c terminus: a fixed tail appended
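Further: lentivirally expressed fusions sorted by FACS into six bins by GFP to DsRed ratio, PSI derived from sequencing read proportions per bin multiplied by bin number.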

Variant	protein stability index
LQQHRARLQGLEADCVRGPDGVCL [L4H]	3.26
LQQTRARLQGLEADCVRGPDGVCL [L4T]	3.18
LQQDRARLQGLEADCVRGPDGVCL [L4D]	4.69
LQQLYARLQGLEADCVRGPDGVCL [R5Y]	2.34
LQQLNARLQGLEADCVRGPDGVCL [R5N]	2.87
LQQLPARLQGLEADCVRGPDGVCL [R5P]	2.98
LQQLLARLQGLEADCVRGPDGVCL [R5L]	1.17
LQQLIARLQGLEADCVRGPDGVCL [R5I]	2.42
LQQLKARLQGLEADCVRGPDGVCL [R5K]	2.2
LQQLGARLQGLEADCVRGPDGVCL [R5G]	2.78
LQQLRADLQGLEADCVRGPDGVCL [R7D]	3.89
LQQLRAFLQGLEADCVRGPDGVCL [R7F]	2.09
LQQLRAGLQGLEADCVRGPDGVCL [R7G]	3.55
LQQLRALLQGLEADCVRGPDGVCL [R7L]	3.52
LQQLRAILQGLEADCVRGPDGVCL [R7I]	2.57
LQQLRAYLQGLEADCVRGPDGVCL [R7Y]	1.73
LQQLRAVLQGLEADCVRGPDGVCL [R7V]	2.03
LQQLRASLQGLEADCVRGPDGVCL [R7S]	2.72
FQQLRARLQGLEADCVRGPDGVCL [L1F]	1.12
CQQLRARLQGLEADCVRGPDGVCL [L1C]	2.92
QQQLRARLQGLEADCVRGPDGVCL [L1Q]	3.83
SQQLRARLQGLEADCVRGPDGVCL [L1S]	4.1
AQQLRARLQGLEADCVRGPDGVCL [L1A]	3.3
NQQLRARLQGLEADCVRGPDGVCL [L1N]	2.96

Variant	protein stability index
KQQLRARLQGLEADCVRGPDGVCL [L1K]	3.5
EQQLRARLQGLEADCVRGPDGVCL [L1E]	5.29
LQQLRARLQGLEGDCVRGPDGVCL [A13G]	1.87
LQQLRARLQGLESDCVRGPDGVCL [A13S]	2.29
LQQLRARLQGLEQDCVRGPDGVCL [A13Q]	3.12
LQQLRARLQGLEWDCVRGPDGVCL [A13W]	1.01
LQQLRARLQGLEADCVRGPDTVCL [G21T]	1.99
LQQLRARLQGLEADCVRGPDNVCL [G21N]	2.69
LQQLRARLQGLEADCVRGPDQVCL [G21Q]	3.34
LQQLRARLQGLEADCVRGPDRVCL [G21R]	2.56
LQQLRARLQGLEADCNRGPDGVCL [V16N]	2.62
LQQLRARLQGLEADCSRGPDGVCL [V16S]	1.84
LQQLRARLQGLEADCYRGPDGVCL [V16Y]	2.57
LQQLRARLQGLEADCTRGPDGVCL [V16T]	2.51
LQQLRARLQGLEADCPRGPDGVCL [V16P]	1.64
LQQLRARLQGLEADCDRGPDGVCL [V16D]	2.87
LQQLRARLQGLEADIVRGPDGVCL [C15I]	1.87
LQQLRARLQGLEADSVRGPDGVCL [C15S]	2.16
LQQLRARLQGLEADYVRGPDGVCL [C15Y]	2.13
LQQLRARLQGLEADDVRGPDGVCL [C15D]	2.65
LQTLRARLQGLEADCVRGPDGVCL [Q3T]	1.2
LQELRARLQGLEADCVRGPDGVCL [Q3E]	2.58
LQALRARLQGLEADCVRGPDGVCL [Q3A]	1.98
LQILRARLQGLEADCVRGPDGVCL [Q3I]	1.68

Variant	protein stability index
LQLLRARLQGLEADCVRGPDGVCL [Q3L]	1.93
LQRLRARLQGLEADCVRGPDGVCL [Q3R]	3.08
LQQLRARLQGLEADCVPGPDGVCL [R17P]	3.52
LQQLRARLQGLEADCVYGPDGVCL [R17Y]	2.47
LQQLRARLQGLEADCVQGPDGVCL [R17Q]	3.04
LQQLRARLQGLEADCVLGPDGVCL [R17L]	1.98
LQQLRARLQGLEADCVNGPDGVCL [R17N]	3.03
LQQLRARLQGLEADCVCGPDGVCL [R17C]	2.04
LQQLRARLQGLEADCVHGPDGVCL [R17H]	2.93
LQQLRARLQGLEADCVTGPDGVCL [R17T]	3.19
LQQLRARLQGLEADCVFGPDGVCL [R17F]	2.12
LQQLRARLQGLEADCVMGPDGVCL [R17M]	1.79
LQQLRARLQGLEADCVRGSDGVCL [P19S]	1
LQQLRARLQGLEADCVRGFDGVCL [P19F]	1.92
LQQLRARLQGLEADCVRGYDGVCL [P19Y]	2.13
LQQLRARVQGLEADCVRGPDGVCL [L8V]	1.99
LQQLRARTQGLEADCVRGPDGVCL [L8T]	3.43
LQQLRARPQGLEADCVRGPDGVCL [L8P]	3.56
LQQLRARNQGLEADCVRGPDGVCL [L8N]	3.94
LQQLRARFQGLEADCVRGPDGVCL [L8F]	2.29
LQQLRARLQGQEADCVRGPDGVCL [L11Q]	3.97
LQQLRARLQGYEADCVRGPDGVCL [L11Y]	2.75
LQQLRARLQGDEADCVRGPDGVCL [L11D]	4.28
LQQLRARLQGFEADCVRGPDGVCL [L11F]	2.25

Variant	protein stability index
LQQLRARLQGKEADCVRGPDGVCL [L11K]	3.69
LQQLRARLQGTEADCVRGPDGVCL [L11T]	3.01
LQQLRARLQGWEADCVRGPDGVCL [L11W]	2.78
LQQLRARLQGLEADCVRWPDGVCL [G18W]	2.54
LQQLRARLQGLEADCVRFPDGVCL [G18F]	1.47
LQQLRARLQGLEADCVRCPDGVCL [G18C]	2.23
LQQLRARLQGLEADCVRYPDGVCL [G18Y]	1.93
LQQLRARLQGLEADCVRQPDGVCL [G18Q]	2.9
LQQLRARLQGLEADCVRPPDGVCL [G18P]	1.78
LQQLRARLQGLEADCVRGPYGVCL [D20Y]	1.26
LQQLRARLQGLEADCVRGPIGVCL [D20I]	1.9
LQQLRARLQGLEADCVRGPHGVCL [D20H]	1.6
LQQLRARLQGLHADCVRGPDGVCL [E12H]	1.35
LQQLRARLQGLQADCVRGPDGVCL [E12Q]	2.26
LQQLRARLQGLPADCVRGPDGVCL [E12P]	1.8
LQQLRARLQGLTADCVRGPDGVCL [E12T]	2.02
LQQLRARLQGLYADCVRGPDGVCL [E12Y]	2.73
LTQLRARLQGLEADCVRGPDGVCL [Q2T]	2.61
LPQLRARLQGLEADCVRGPDGVCL [Q2P]	3.05
LKQLRARLQGLEADCVRGPDGVCL [Q2K]	1.38
LEQLRARLQGLEADCVRGPDGVCL [Q2E]	2.63
LWQLRARLQGLEADCVRGPDGVCL [Q2W]	1.28
